Source: patent publication US20200102347A1 (AUCTUS BIOLOGIES, published 2020)
Residue numbers refer to the chain shown, from its start. Names may count otherwise. No end group written: not given here. *: point of attachment. RhodamineB = CCN(CC)c1ccc2c(-c3ccccc3C(=O)*)c3ccc(=[N+](CC)CC)cc-3oc2c1

T1: RPtag(small) l14a (Thermoanaerobacter tengcongensis, N-terminal rhodamine)
T1 peptide: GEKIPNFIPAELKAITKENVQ

T2: native RPtag(small) (Thermoanaerobacter tengcongensis, N-terminal rhodamine)
T2 construct: Synthetic peptide
T2 peptide: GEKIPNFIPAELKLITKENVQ

T3: RPtag(small) l14k (Thermoanaerobacter tengcongensis, N-terminal rhodamine)
T3 construct: also called L14K RPtag(small)
T3 peptide: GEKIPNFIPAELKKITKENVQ

T4: RPtag(small) Nd2, Cd4 (Thermoanaerobacter tengcongensis)
T4 peptide: RhodamineB-KIPNFIPAELKLITK

T5: NativeRPtag small for immobilization (Thermoanaerobacter tengcongensis, C-terminal Cys (GGC) coupled to SulfoLink agarose resin)
T5 construct: also called immobilized RPtag (small)
T5 peptide: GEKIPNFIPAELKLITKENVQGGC

T6: MaturePDGF-β_NterminalPeptide
T6 construct: an N-terminal G was added and is left out of the numbering; also called PDGF-β peptide
T6 peptide: RhodamineB-GSLGSLTIAEPAMIAE

T7: NativeRPtag(large)_with_Tags_and_Cys (Thermoanaerobacter tengcongensis)
T7 construct: Unlabeled in anisotropy assays; coupled through the engineered N-terminal Cys to SulfoLink agarose or maleimide plates in column, pull-down and ELISA assays
T7 chain: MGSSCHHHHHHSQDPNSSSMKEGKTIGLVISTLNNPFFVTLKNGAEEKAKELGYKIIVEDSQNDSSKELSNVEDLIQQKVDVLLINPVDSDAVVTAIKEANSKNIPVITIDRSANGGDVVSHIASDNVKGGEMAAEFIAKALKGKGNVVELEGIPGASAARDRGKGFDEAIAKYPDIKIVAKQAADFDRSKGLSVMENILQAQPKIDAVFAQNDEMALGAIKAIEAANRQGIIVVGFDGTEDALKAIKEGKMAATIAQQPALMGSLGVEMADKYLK

B1: RPtag(large) f137d (designed binder)
chain: T7 chain with F137D
notes: also called F137D RPtag(large)
B2: f137e (designed binder)
single chain: T7 chain with F137E
notes: single mutant of RPtag large; also called RPtag(large) F137E
B3: h122w (designed binder)
single chain: T7 chain with H122W
notes: also called RPtag(large) H122W
B4: m270e (designed binder)
single chain: T7 chain with M270E
notes: also called RPtag(large) M270E
B5: m270r (designed binder)
single chain: T7 chain with M270R
notes: also called RPtag(large) M270R
B6: m270n (designed binder)
single chain: T7 chain with M270N
notes: also called RPtag(large) M270N
B7: k129y (designed binder)
single chain: T7 chain with K129Y
notes: also called RPtag(large) K129Y
B8: f137t (designed binder)
single chain: T7 chain with F137T
notes: also called RPtag(large) F137T
B9: h122a (designed binder)
single chain: T7 chain with H122A
notes: also called RPtag(large) H122A
B10: k129h (designed binder)
single chain: T7 chain with K129H
notes: also called RPtag(large) K129H
B11: m270k (designed binder)
single chain: T7 chain with M270K
notes: also called RPtag(large) M270K
B12: g130v (designed binder)
single chain: T7 chain with G130V
notes: also called RPtag(large) G130V
B13: h122f (designed binder)
single chain: T7 chain with H122F
notes: also called RPtag(large) H122F
B14: k129f (designed binder)
single chain: T7 chain with K129F
notes: also called RPtag(large) K129F
B15: h122l (designed binder)
single chain: T7 chain with H122L
notes: also called RPtag(large) H122L
B16: f137s (designed binder)
single chain: T7 chain with F137S
notes: also called RPtag(large) F137S
B17: k129a (designed binder)
single chain: T7 chain with K129A
notes: also called RPtag(large) K129A
B18: g130a (designed binder)
single chain: T7 chain with G130A
notes: also called RPtag(large) G130A
B19: Cterminally_tagged_NativeRPtag(large)_tagRFP (other)
chain: MGSSHHHHHHHHGSMVSKGEELIKENMHMKLYMEGTVNNHHFKCTSEGEGKPYEGTQTMRIKVVEGGPLPFAFDILATSFMYGSRTFINHTQGIPDFFKQSFPEGFTWERVTTYEDGGVLTATQDTSLQDGCLIYNVKIRGVNFPSNGPVMQKKTLGWEANTEMLYPADGGLEGRSDMALKLVGGGHLICNFKTTYRSKKPAKNLKMPGVYYVDHRLERIKEADKETYVEQHEVAVARYCDLPSKLGHKLNGSSGENLYFQGGSSQDPNSSSMKEGKTIGLVISTLNNPFFVTLKNGAEEKAKELGYKIIVEDSQNDSSKELSNVEDLIQQKVDVLLINPVDSDAVVTAIKEANSKNIPVITIDRSANGGDVVSHIASDNVKGGEMAAEFIAKALKGKGNVVELEGIPGASAARDRGKGFDEAIAKYPDIKIVAKQAADFDRSKGLSVMENILQAQPKIDAVFAQNDEMALGAIKAIEAANRQGIIVVGFDGTEDALKAIKEGKMAATIAQQPALMGSLGVEMADKYLK
notes: Fusion of 8XHis, tagRFP, TEV site and RPtag(large)
B20: Nterminally_tagged_NativeRPtag(large)_tagRFP (other)
chain: MGSSSQDPNSSSMKEGKTIGLVISTLNNPFFVTLKNGAEEKAKELGYKIIVEDSQNDSSKELSNVEDLIQQKVDVLLINPVDSDAVVTAIKEANSKNIPVITIDRSANGGDVVSHIASDNVKGGEMAAEFIAKALKGKGNVVELEGIPGASAARDRGKGFDEAIAKYPDIKIVAKQAADFDRSKGLSVMENILQAQPKIDAVFAQNDEMALGAIKAIEAANRQGIIVVGFDGTEDALKAIKEGKMAATIAQQPALMGSLGVEMADKYLKGSENLYFQGGSMVSKGEELIKENMHMKLYMEGTVNNHHFKCTSEGEGKPYEGTQTMRIKVVEGGPLPFAFDILATSFMYGSRTFINHTQGIPDFFKQSFPEGFTWERVTTYEDGGVLTATQDTSLQDGCLIYNVKIRGVNFPSNGPVMQKKTLGWEANTEMLYPADGGLEGRSDMALKLVGGGHLICNFKTTYRSKKPAKNLKMPGVYYVDHRLERIKEADKETYVEQHEVAVARYCDLPSKLGHKLNGSSGHHHHHHHH
notes: Fusion of RPtag(large), TEV site, tagRFP and 8XHis
B21: Nterminally tagged NativeRPtag(small)_tagRFP (other)
chain: MGSSGEKIPNFIPAELKLITKENVQGSENLYFQGGSMVSKGEELIKENMHMKLYMEGTVNNHHFKCTSEGEGKPYEGTQTMRIKVVEGGPLPFAFDILATSFMYGSRTFINHTQGIPDFFKQSFPEGFTWERVTTYEDGGVLTATQDTSLQDGCLIYNVKIRGVNFPSNGPVMQKKTLGWEANTEMLYPADGGLEGRSDMALKLVGGGHLICNFKTTYRSKKPAKNLKMPGVYYVDHRLERIKEADKETYVEQHEVAVARYCDLPSKLGHKLNGSSGHHHHHHHH
notes: Fusion of RPtag(small), TEV site, tagRFP and 8XHis
B22: Cterminally_tagged_NativeRPtag(small)_tagRFP (other)
chain: MGSSHHHHHHHHGSMVSKGEELIKENMHMKLYMEGTVNNHHFKCTSEGEGKPYEGTQTMRIKVVEGGPLPFAFDILATSFMYGSRTFINHTQGIPDFFKQSFPEGFTWERVTTYEDGGVLTATQDTSLQDGCLIYNVKIRGVNFPSNGPVMQKKTLGWEANTEMLYPADGGLEGRSDMALKLVGGGHLICNFKTTYRSKKPAKNLKMPGVYYVDHRLERIKEADKETYVEQHEVAVARYCDLPSKLGHKLNGSSGENLYFQGGSGEKIPNFIPAELKLITKENVQGS
notes: Fusion of 8XHis, tagRFP, TEV site and RPtag(small)

Target: T1, RPtag(small) l14a
Assay: fluorescence anisotropy; 1 nM rhodamine RPtag small peptide, unlabeled RPtag large titrated, 1 h; 50 mM Tris pH 8.0, 0.005% Tween20; bar of Ka = 1/Kd
Experimental: (§1) Resultant curves were fit with the equation f=y0+(ymax−y0)*(Ptot+x+Kd−sqrt((Ptot+x+Kd)\hat{ }2−4*Ptot*x))/(2*Ptot), where y0 is the baseline anisotropy, ymax is the maximum anisotropy, Ptot is the fixed concentration of labeled peptide used, x is the variable concentration of protein used, and Kd is the measured Kd. […] Buffer was 50 mM Tris pH 8.0, 0.005% tween20.

**Q.** Does B1 bind?
**A.** binds

**Q.** Does B2 bind?
**A.** binds

Target: T2, native RPtag(small)
Assay: as above
Experimental: as §1

**Q.** Does B1 bind?
**A.** binds

**Q.** Does B2 bind?
**A.** binds

Target: T3, RPtag(small) l14k
Assay: as above
Experimental: as §1

**Q.** Does B1 bind?
**A.** binds

**Q.** Does B2 bind?
**A.** binds

Target: T4, RPtag(small) Nd2, Cd4
Assay: fluorescence anisotropy; 2 nM rhodamine Nd2Cd4, unlabeled RPtag large variant titrated; bar of Ka = 1/Kd, right axis
Experimental: (§2) After the incubation, fluorescence anisotropy was measured, and the resultant curves were fit with the equation f=y0+(ymax−y0)*(Ptot+x+Kd−sqrt((Ptot+x+Kd)\hat{ }2−4*Ptot*x))/(2*Ptot), where y0 is the baseline anisotropy, ymax is the maximum anisotropy, Ptot is the fixed concentration of labeled peptide used, x is the variable concentration of protein used, and Kd is the measured Kd. […] Buffer was 50 mM Tris pH 8.0, 0.005% Tween20.

**Q.** Does B1 bind?
**A.** binds

**Q.** Does B3 bind?
**A.** binds

**Q.** Does B4 bind?
**A.** binds

**Q.** Does B5 bind?
**A.** binds

**Q.** Does B2 bind?
**A.** binds

**Q.** Does B6 bind?
**A.** binds

**Q.** Does B7 bind?
**A.** binds

**Q.** Does B8 bind?
**A.** binds

**Q.** Does B9 bind?
**A.** binds

**Q.** Does B10 bind?
**A.** binds

**Q.** Does B11 bind?
**A.** binds

**Q.** Does B12 bind?
**A.** binds

**Q.** Does B13 bind?
**A.** binds

**Q.** Does B14 bind?
**A.** binds

**Q.** Does B15 bind?
**A.** binds

**Q.** Does B16 bind?
**A.** binds

**Q.** Does B17 bind?
**A.** binds

**Q.** Does B18 bind?
**A.** binds

Target: T5, NativeRPtag small for immobilization
Assay: column binding; 25 mL of 1 µM tagRFP fusion applied to immobilized RPtag (small), washed with 10 mL TNE buffer, photographed
Experimental: (§3) After purification of the tagged proteins, each was applied to its complementary column to evaluate binding. […] Briefly, columns were first equilibrated in 20 mM Tris pH 8.0, 150 mM NaCl, 1 mM EDTA (TNE buffer), then 25 mL of 1 μM tagged protein in TNE buffer was applied to the column at a flow rate of 1 ml/min, then washed with 10 mL of TNE buffer. Columns were cleaned with 10 mL 100 mM Glycine pH 1.5 between uses.
(§4) Briefly, columns were equilibrated in 20 mM Tris pH 8.0, 150 mM NaCl, 1 mM EDTA (TEN buffer), then 25 mL of 1 μM tagged protein in TEN buffer was applied to the column at a flow rate of 1 ml/min. Thereafter, the column was washed with 10 mL of TEN buffer, and the results recorded by photograph (FIG. 8). Columns were cleaned with 10 mL 100 mM Glycine pH 1.5 between uses.

**Q.** Does B19 bind?
**A.** binds

**Q.** Does B20 bind?
**A.** binds

Target: T6, MaturePDGF-β_NterminalPeptide
Assay: fluorescence anisotropy; 20 nM rhodamine PDGF-β N-terminal peptide, unlabeled RPtag large variant titrated; bar of Ka = 1/Kd, left axis
Experimental: as §2

**Q.** Does B1 bind?
**A.** binds

**Q.** Does B3 bind?
**A.** binds

**Q.** Does B4 bind?
**A.** binds

**Q.** Does B5 bind?
**A.** binds

**Q.** Does B2 bind?
**A.** binds

**Q.** Does B6 bind?
**A.** binds

**Q.** Does B7 bind?
**A.** binds

**Q.** Does B8 bind?
**A.** binds

**Q.** Does B9 bind?
**A.** binds

**Q.** Does B10 bind?
**A.** binds

**Q.** Does B11 bind?
**A.** binds

**Q.** Does B12 bind?
**A.** binds

**Q.** Does B13 bind?
**A.** binds

**Q.** Does B14 bind?
**A.** binds

**Q.** Does B15 bind?
**A.** binds

**Q.** Does B16 bind?
**A.** binds

**Q.** Does B17 bind?
**A.** binds

**Q.** Does B18 bind?
**A.** binds

Target: T7, NativeRPtag(large)_with_Tags_and_Cys
Assay: column binding; non-complementary tagRFP fusion applied to immobilized RPtag (large), washed, photographed

**Q.** Does B19 bind?
**A.** no binding (tested: 1 µM (25 mL applied))

**Q.** Does B20 bind?
**A.** no binding (tested: 1 µM (25 mL applied))

Target: T7, NativeRPtag(large)_with_Tags_and_Cys
Assay: column binding; 25 mL of 1 µM tagRFP fusion applied to immobilized RPtag (large), washed with 10 mL TNE buffer, photographed
Experimental: as §3, §4

**Q.** Does B21 bind?
**A.** binds

**Q.** Does B22 bind?
**A.** binds

Target: T5, NativeRPtag small for immobilization
Assay: column binding; non-complementary tagRFP fusion applied to immobilized RPtag (small), washed, photographed

**Q.** Does B21 bind?
**A.** no binding (tested: 1 µM (25 mL applied))

**Q.** Does B22 bind?
**A.** no binding (tested: 1 µM (25 mL applied))
